From publication PMC3358304 come the findings set out here.

A short description of the data set: immunoblot of total Akt, MCF-7. Particulars: glycan lost; control: wild type. For orientation: Immunoblotting shows a protein as a band on a membrane.

Turning to Akt (AKT1): T305Y, the expression_or_secretion result is on record as “no change”.

Consider Akt (AKT1): T312Y, for which the expression_or_secretion result is “no change”.
